The text below walks through data of the RNAGym collection of RNA variant scans (doi:10.7554/elife.90254).

To fix the notation:
B1: LINE1-full (parent)
chain: UACGUAGGUGGUUUUCCCCUGAUAGUGCUAAGGGGGCCUGGAAGUUUGGACUGGGCAGAGCUCAACACAGCGUGGCAAAGUGGCUGUGGCUAGACUGCCUCUCUGGAUUCCUCGUCACUCAGCAGGGCAUCUCUGAGAGAAAUGCC

The variants in this data set derive from B1. As to the kind of experiment: self-cleavage, relative activity (ratio to wild type); higher = more cleavage; in vitro, sequencing; the parent is a self-cleaving ribozyme.
Take UACGUAGGUGGUUUUCCCCUGAUAGUGCUAAGGGGGCCCGGAAGUUUGGACUGGGCAGAGCUCAACACUGCGUGGCAAAGUGGCUGUGGCUAGACUGCCUCUCUGGAUUCCUCGUCACUCAGCAGGGCAUCUCUGAGAGAAAUGCC: the self-cleavage was found to be 0.06.

Take UACGUAGGUGGUUUUCCCCUGAUAGUGCUAAGGGGGCCCGGAAGUUUGGACUGGGCAGAGCUCAACACCGCGUGGCAAAGUGGCUGUGGCUAGACUGCCUCUCUGGAUUCCUCGUCACUCAGCAGGGCAUCUCUGAGAGAAAUGCC: the self-cleavage turned out to be 0.11.

UACGUAGGUGGUUUUCCCCUGAUAGUGCUAAGGGGGCCCGGAAGUUUGGACUGGGCAGAGCUCAUCACAGCGUGGCAAAGUGGCUGUGGCUAGACUGCCUCUCUGGAUUCCUCGUCACUCAGCAGGGCAUCUCUGAGAGAAAUGCC: the self-cleavage is 0.12.

For the variant UACGUAGGUGGUUUUCCCCUGAUAGUGCUAAGGGGGCCCGGAGGUUUGGACUGGGCAGAGCUCAACACAGCGUGGCAAAGUGGCUGUGGCUAGACUGCCUCUCUGGAUUCCUCGUCACUCAGCAGGGCAUCUCUGAGAGAAAUGCC, the self-cleavage is 1.38.

For UACGUAGGUGGUUUUCCCCUGAUAGUGCUAAGGGGGCCCGGAAGUUUGGACUGAGCAGAGCUCAACACAGCGUGGCAAAGUGGCUGUGGCUAGACUGCCUCUCUGGAUUCCUCGUCACUCAGCAGGGCAUCUCUGAGAGAAAUGCC, the self-cleavage amounted to 0.58.

UACGUAGGUGGUUUUCCCCUGAUAGUGCUAAGGGGGCCCGGAAGUUUGGACUGGGCAGAGCUCAACGCAGCGUGGCAAAGUGGCUGUGGCUAGACUGCCUCUCUGGAUUCCUCGUCACUCAGCAGGGCAUCUCUGAGAGAAAUGCC: the self-cleavage was 0.35.

With UACGUAGGUGGUUUUCCCCUGAUAGUGCUAAGGGGGCCCGGAAGUUUGGACUGGGCAGAGCUCAACUCAGCGUGGCAAAGUGGCUGUGGCUAGACUGCCUCUCUGGAUUCCUCGUCACUCAGCAGGGCAUCUCUGAGAGAAAUGCC, the self-cleavage turned out to be 0.16.

In the case of UACGUAGGUGGUUUUCCCCUGAUAGUGCUAAGGGGGCCCGGAAGUUUGGACUGGGCAGAGCUCAACACAGCGUGGCAAAGUGGCUGUGGCUAGACUGCCUCUCUGGAUUCCUCGUCAAUCAGCAGGGCAUCUCUGAGAGAAAUGCC, the self-cleavage turned out to be 1.33.

Turning to UACGUAGGUGGUUUUCCCCUGAUAGUGCUAAGGGGGCCCGGAAGUUUGGACUGGGCAGAGCUCAACACAGCGUGGCAAAGUGGCUGUGGCUAGACUGCCUCUCUGGAUUCCUCGUCACUCAGCAGGGCAUCUCUGAGAGAUAUGCC, the self-cleavage was 2.2.

As to UACGUAGGUGGUUUUCCCCUGAUAGUGCUAAGGGGGCCAGGAAGUUUGGACUGGGCAGAGCUCAACACAGCGUGGCAAAGUGGCUGUGGCUAGACUGCCUCUCUGGAUACCUCGUCACUCAGCAGGGCAUCUCUGAGAGAAAUGCC, the self-cleavage was determined as 1.45.

As to UACGUAGGUGGUUUUCCCCUGAUAGUGCUAAGGGGGCCAGGAAGUUUGGACUGGGCAGAGCUCAACACAGCGUGGCAAAGUGGCUGUGGCUAGACUGCCUCUCUGGAUCCCUCGUCACUCAGCAGGGCAUCUCUGAGAGAAAUGCC, the self-cleavage was 1.1.

Consider UACGUAGGUGGUUUUCCCCUGAUAGUGCUAAGGGGGCCCGGAAGUUUGGACUGGGCAGAGCUCGACACAGCGUGGCAAAGUGGCUGUGGCUAGACUGCCUCUCUGGAUUCCUCGUCACUCAGCAGGGCAUCUCUGAGAGAAAUGCC, for which the self-cleavage worked out at 0.24.

For the variant UACGUAGGUGGUUUUCCCCUGAUAGUGCUAAGGGGGCCCGGAAGUUUGGACUGGGCAGAGCUCAACACAGCGUGGCAAAGUGGCUGUGGCUAGACUGCCUCUCUGGCUUCCUCGUCACUCAGCAGGGCAUCUCUGAGAGAAAUGCC, the self-cleavage is 2.09.

UACGUAGGUGGUUUUCCCCUGAUAGUGCUAAGGGGGCCAGGAAGUUUGGACUGGGCAGAGCUCAACACAGCGUGGCAAAGUGGCUGUGGCUAGACUGCCUCUCUGGAUUCCUCGUCACUCAGCAGGGCAUCUCAGAGAGAAAUGCC: the self-cleavage stood at 0.9.

Take UACGUAGGUGGUUUUCCCCUGAUAGUGCUAAGGGGGCCCGAAAGUUUGGACUGGGCAGAGCUCAACACAGCGUGGCAAAGUGGCUGUGGCUAGACUGCCUCUCUGGAUUCCUCGUCACUCAGCAGGGCAUCUCUGAGAGAAAUGCC: the self-cleavage was 1.41.

Take UACGUAGGUGGUUUUCCCCUGAUAGUGCUAAGGGGGCCAGGAAGUUUGGACUGGGCAGAGCUCAACACAGCGUGGCAAAGUGGCUGUGGCUAGACUGCCUCUCUGGAUUCCUCGUCACACAGCAGGGCAUCUCUGAGAGAAAUGCC: the self-cleavage amounted to 1.46.

As for UACGUAGGUGGUUUUCCCCUGAUAGUGCUAAGGGGGCCAGGAAGUUUGGACUGGGCAGAGCUCAACACAGCGUGGCAAAGUGGCUGUGGCUAGACUGCCUCUCUGGAUUCCUCGUCACCCAGCAGGGCAUCUCUGAGAGAAAUGCC, the self-cleavage was 1.44.

Turning to UACGUAGGUGGUUUUCCCCUGAUAGUGCUAAGGGGGCCCGGAAGUUUGGACUGGGCAGAGCUCAACACAGCGUGGCAAAGUGGCUGUGGCUAGACUGCCUCUCUGGAUUCCUAGUCACUCAGCAGGGCAUCUCUGAGAGAAAUGCC, the self-cleavage turned out to be 0.33.

With UACGUAGGUGGUUUUCCCCUGAUAGUGCUAAGGGGGCCCGGAAGUUUGGACUGGGCAGAGCUCAACACAGCGUGGCAAAGUGGCUGUGGCUAGACUGCCUCUCUGGAUUCCUGGUCACUCAGCAGGGCAUCUCUGAGAGAAAUGCC, the self-cleavage came to 1.71.

Take UACGUAGGUGGUUUUCCCCUGAUAGUGCUAAGGGGGCCCGGAAGUUUGGACUGGGCAGAGCUCAACACAGCGUGGCAAAGUGGCUGUGGCUAGACUGCCUCUCUGGAUUGCUCGUCACUCAGCAGGGCAUCUCUGAGAGAAAUGCC: the self-cleavage came to 0.51.

As to UACGUAGGUGGUUUUCCCCUGAUAGUGCUAAGGGGGCCCGGAAGUUUGGACUGGGCAGAGCUCAACACAGCGUGGCAAAGUGGCUGUGGCUAGACUGCCUCUCUGGAUUCCUCGUCACUCAGCAGGGCAUCUUUGAGAGAAAUGCC, the self-cleavage came to 1.31.

For UACGUAGGUGGUUUUCCCCUGAUAGUGCUAAGGGGGCCCGGAAGUUUGGACUGGGCAGAGCUCAACACAGCGUGGCAAAGUGGCUGUGGCUAGACUGCCUCUCUGGAUUCCUCGUCACUCAGCGGGGCAUCUCUGAGAGAAAUGCC, the self-cleavage worked out at 0.53.

Take UACGUAGGUGGUUUUCCCCUGAUAGUGCUAAGGGGGCCCGGGAGUUUGGACUGGGCAGAGCUCAACACAGCGUGGCAAAGUGGCUGUGGCUAGACUGCCUCUCUGGAUUCCUCGUCACUCAGCAGGGCAUCUCUGAGAGAAAUGCC: the self-cleavage is 1.44.

As to UACGUAGGUGGUUUUCCCCUGAUAGUGCUAAGGGGGCCAGGAAGUUUGGACUGGGCAGAGCUCAACACAGCGUGGCAAAGUGGCUGUGGCUAGACUGCCUCUCUGGAUUCCUCGUCACUCAGCAGGGCAUCUCUGAGAGAAAAGCC, the self-cleavage is 1.37.

UACGUAGGUGGUUUUCCCCUGAUAGUGCUAAGGGGGCCCGGAAGUUUGGACUGGGCAGAGCUCAACACAGCGUGGCGAAGUGGCUGUGGCUAGACUGCCUCUCUGGAUUCCUCGUCACUCAGCAGGGCAUCUCUGAGAGAAAUGCC: the self-cleavage is 1.93.

For UACGUAGGUGGUUUUCCCCUGAUAGUGCUAAGGGGGCCCGGAAGUUUGGACUGGGCAGAGCUCAACACAGCGUGGCAGAGUGGCUGUGGCUAGACUGCCUCUCUGGAUUCCUCGUCACUCAGCAGGGCAUCUCUGAGAGAAAUGCC, the self-cleavage is 0.95.

UACGUAGGUGGUUUUCCCCUGAUAGUGCUAAGGGGGCCCGGAAGUUUGGACUGGGCAGAGCUCAACACAGCGUGGCAAAGUGGCUGUGGCUAGACUGCCUCUCUGGAUUCCUCGUCACUCAGCAGGGUAUCUCUGAGAGAAAUGCC: the self-cleavage was 1.16.

With UACGUAGGUGGUUUUCCCCUGAUAGUGCUAAGGGGGCCAGGAAGUUUGGACUGGGCAGAGCUCAACACAGCGUGGCAAAGUGGCUGUGGCUAGACUGCCUCUCUGGAUUCCUCGUCACUCAGCAGGGCACCUCUGAGAGAAAUGCC, the self-cleavage came out at 1.5.

Consider UACGUAGGUGGUUUUCCCCUGAUAGUGCUAAGGGGGCCCGGAAGUUUGGACUGGGCGGAGCUCAACACAGCGUGGCAAAGUGGCUGUGGCUAGACUGCCUCUCUGGAUUCCUCGUCACUCAGCAGGGCAUCUCUGAGAGAAAUGCC, for which the self-cleavage is 0.44.

UACGUAGGUGGUUUUCCCCUGAUAGUGCUAAGGGGGCCCGGAAGUUUGGACUGGGCAGAGCUCAACACAGUGUGGCAAAGUGGCUGUGGCUAGACUGCCUCUCUGGAUUCCUCGUCACUCAGCAGGGCAUCUCUGAGAGAAAUGCC: the self-cleavage came to 0.31.

Turning to UACGUAGGUGGUUUUCCCCUGAUAGUGCUAAGGGGGCCCGGAAGUUUGGACUGGGCAGAGCUCAACACAGCGUGGCAAAGUGGCUGUGGCUAGACUGCCUCUCUGGAUUCCUCGUCCCUCAGCAGGGCAUCUCUGAGAGAAAUGCC, the self-cleavage amounted to 1.84.

For UACGUAGGUGGUUUUCCCCUGAUAGUGCUAAGGGGGCCCGGAAGUUUGGACUGGGCAGAGCUCAACACAGCGUGGCAAAGUGGCUGUGGCUAGACUGCCUCUCUGGAUUCCUCGUCACUCAGCAGGGCAUCUCUGAGGGAAAUGCC, the self-cleavage came to 1.29.

Turning to UACGUAGGUGGUUUUCCCCUGAUAGUGCUAAGGGGGCCCGGAAGUUUGGACUGGGCAGAGCUCAACACAGCGUGGCAAAGUGGCUGUGGCUAGACUGCCUCUCUGGAUUCCUCGUCACUCAGCAGGGCAUCUCUGAGUGAAAUGCC, the self-cleavage was found to be 1.29.

As for UACGUAGGUGGUUUUCCCCUGAUAGUGCUAAGGGGGCCCGGAAGUUUGGACUGGGCAGAGCUCAACACAGCGUGGCAACGUGGCUGUGGCUAGACUGCCUCUCUGGAUUCCUCGUCACUCAGCAGGGCAUCUCUGAGAGAAAUGCC, the self-cleavage came out at 2.53.

Take UACGUAGGUGGUUUUCCCCUGAUAGUGCUAAGGGGGCCCGGAAGUUUGGACUGGGCAGAGCUCAACACAGCGUGGCAAGGUGGCUGUGGCUAGACUGCCUCUCUGGAUUCCUCGUCACUCAGCAGGGCAUCUCUGAGAGAAAUGCC: the self-cleavage was found to be 1.21.

UACGUAGGUGGUUUUCCCCUGAUAGUGCUAAGGGGGCCCGGAAGUUUGGACUGGGCAGAGCUCAACACAGCGUGGUAAAGUGGCUGUGGCUAGACUGCCUCUCUGGAUUCCUCGUCACUCAGCAGGGCAUCUCUGAGAGAAAUGCC: the self-cleavage is 0.7.

On to UACGUAGGUGGUUUUCCCCUGAUAGUGCUAAGGGGGCCCGGAAGUUUGGACUGGGCAGAGCUCAACACAGCGUGGCAAAGUGGCUGUGGCUAGACUGCCUCUCUGGAUUCCUCGUCACUCAGCAGGGCAUCUCUGGGAGAAAUGCC, for which the self-cleavage was 1.43.

In the case of UACGUAGGUGGUUUUCCCCUGAUAGUGCUAAGGGGGCCCGGAAGUUUGGACUGGGCAGAGCUCAACACAGCGUGGCAAAGUGGCUGUGGCUAGACUGCCUCUCUGGAUUCCUCGUCACUCAGCAGGGCAUCUCUGUGAGAAAUGCC, the self-cleavage stood at 1.25.

In the case of UACGUAGGUGGUUUUCCCCUGAUAGUGCUAAGGGGGCCCGGAAGUUUGGACUGGGCAGAGGUCAACACAGCGUGGCAAAGUGGCUGUGGCUAGACUGCCUCUCUGGAUUCCUCGUCACUCAGCAGGGCAUCUCUGAGAGAAAUGCC, the self-cleavage stood at 0.07.
